Measurements reported in the supplement of paper PMC9112550, “Optimization of the antimicrobial peptide Bac7 by deep mutational scanning” (BMC Biology, 2022).
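Note: peptides expressed intracellularly from a pBAD plasmid library in pooled LB shake-flask culture, induced with 0.3% L-arabinose, DNA abundance read by NGS, three biological replicates, DESeq2 with apeglm shrinkage.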

These sequences were tested on Escherichia coli TOP10 (assay: shrunken log2 fold change of peptide-encoding DNA abundance (4.5 h post-induction vs induction); higher = less antimicrobial activity (less host growth inhibition)). Details: time post-induction: 4.5 h; library: site-saturation at positions 5, 18, 19, 20.
With RRIRSRPPRLPRPRPRPISNPRP the “shrunken log2 fold change” value was -0.338. For RRIRSRPPRLPRPRPRPITDPRP, the “shrunken log2 fold change” value was -0.0789. For RRIRSRPPRLPRPRPRPIVTPRP, the “shrunken log2 fold change” value was -0.192. In the case of RRIRSRPPRLPRPRPRPIYRPRP, the “shrunken log2 fold change” value is reported as 0.0394. RRIRSRPPRLPRPRPRPIYYPRP was tested, and the “shrunken log2 fold change” value was -0.641. With RRIRSRPPRLPRPRPRPKENPRP the “shrunken log2 fold change” value was -0.0465. In the case of RRIRSRPPRLPRPRPRPKFLPRP, the “shrunken log2 fold change” value is reported as -0.0307. With RRIRSRPPRLPRPRPRPKFQPRP the “shrunken log2 fold change” value was 0.146. In the case of RRIRSRPPRLPRPRPRPKFRPRP, the “shrunken log2 fold change” value is reported as -0.183. RRIRSRPPRLPRPRPRPKIPPRP was tested, and the “shrunken log2 fold change” value was 1.16. In the case of RRIRSRPPRLPRPRPRPKKYPRP, the “shrunken log2 fold change” value is reported as -0.3. In the case of RRIRSRPPRLPRPRPRPKLDPRP, the “shrunken log2 fold change” value is reported as -0.037. In the case of RRIRSRPPRLPRPRPRPKMIPRP, the “shrunken log2 fold change” value is reported as -0.292. In the case of RRIRSRPPRLPRPRPRPKNFPRP, the “shrunken log2 fold change” value is reported as -0.053. With RRIRSRPPRLPRPRPRPKNGPRP the “shrunken log2 fold change” value was -0.105. In the case of RRIRSRPPRLPRPRPRPKPAPRP, the “shrunken log2 fold change” value is reported as 0.555. In the case of RRIRSRPPRLPRPRPRPKRLPRP, the “shrunken log2 fold change” value is reported as 0.297. With RRIRSRPPRLPRPRPRPKRSPRP the “shrunken log2 fold change” value was 0.205. For RRIRSRPPRLPRPRPRPKSFPRP, the “shrunken log2 fold change” value was 0.172. In the case of RRIRSRPPRLPRPRPRPKSPPRP, the “shrunken log2 fold change” value is reported as 0.291. With RRIRSRPPRLPRPRPRPKSSPRP the “shrunken log2 fold change” value was -0.176. RRIRSRPPRLPRPRPRPKTAPRP was tested, and the “shrunken log2 fold change” value was 0.097. In the case of RRIRSRPPRLPRPRPRPKTLPRP, the “shrunken log2 fold change” value is reported as 2.07. RRIRSRPPRLPRPRPRPKVMPRP was tested, and the “shrunken log2 fold change” value was 0.0101. For RRIRSRPPRLPRPRPRPKYPPRP, the “shrunken log2 fold change” value was -0.186. In the case of RRIRSRPPRLPRPRPRPLAFPRP, the “shrunken log2 fold change” value is reported as -0.0837. With RRIRSRPPRLPRPRPRPLCFPRP the “shrunken log2 fold change” value was -0.0528. RRIRSRPPRLPRPRPRPLCPPRP was tested, and the “shrunken log2 fold change” value was -0.0602. For RRIRSRPPRLPRPRPRPLCSPRP, the “shrunken log2 fold change” value was 0.0443. With RRIRSRPPRLPRPRPRPLDLPRP the “shrunken log2 fold change” value was -0.154. In the case of RRIRSRPPRLPRPRPRPLEMPRP, the “shrunken log2 fold change” value is reported as -0.314. For RRIRSRPPRLPRPRPRPLENPRP, the “shrunken log2 fold change” value was -0.0294. In the case of RRIRSRPPRLPRPRPRPLEYPRP, the “shrunken log2 fold change” value is reported as -0.277. With RRIRSRPPRLPRPRPRPLFPPRP the “shrunken log2 fold change” value was -0.00148. RRIRSRPPRLPRPRPRPLGYPRP was tested, and the “shrunken log2 fold change” value was -0.351. In the case of RRIRSRPPRLPRPRPRPLHTPRP, the “shrunken log2 fold change” value is reported as 0.0576. With RRIRSRPPRLPRPRPRPLKCPRP the “shrunken log2 fold change” value was -0.0843. With RRIRSRPPRLPRPRPRPLKLPRP the “shrunken log2 fold change” value was -0.15. In the case of RRIRSRPPRLPRPRPRPLLHPRP, the “shrunken log2 fold change” value is reported as -0.0854. RRIRSRPPRLPRPRPRPLMNPRP was tested, and the “shrunken log2 fold change” value was -0.204. For RRIRSRPPRLPRPRPRPLMYPRP, the “shrunken log2 fold change” value was -0.197. RRIRSRPPRLPRPRPRPLNQPRP was tested, and the “shrunken log2 fold change” value was 0.479. RRIRSRPPRLPRPRPRPLTDPRP was tested, and the “shrunken log2 fold change” value was -0.162. With RRIRSRPPRLPRPRPRPLTLPRP the “shrunken log2 fold change” value was -0.599. RRIRSRPPRLPRPRPRPLTRPRP was tested, and the “shrunken log2 fold change” value was 0.0286. RRIRSRPPRLPRPRPRPLVKPRP was tested, and the “shrunken log2 fold change” value was -0.111. With RRIRSRPPRLPRPRPRPLWLPRP the “shrunken log2 fold change” value was -0.0472. In the case of RRIRSRPPRLPRPRPRPLYDPRP, the “shrunken log2 fold change” value is reported as -0.113. RRIRSRPPRLPRPRPRPMACPRP was tested, and the “shrunken log2 fold change” value was -0.342. With RRIRSRPPRLPRPRPRPMDVPRP the “shrunken log2 fold change” value was -0.02. RRIRSRPPRLPRPRPRPMDYPRP was tested, and the “shrunken log2 fold change” value was 0.0691. For RRIRSRPPRLPRPRPRPMICPRP, the “shrunken log2 fold change” value was -0.0898. In the case of RRIRSRPPRLPRPRPRPMKKPRP, the “shrunken log2 fold change” value is reported as -0.0833. For RRIRSRPPRLPRPRPRPMKPPRP, the “shrunken log2 fold change” value was -0.0309. RRIRSRPPRLPRPRPRPMLPPRP was tested, and the “shrunken log2 fold change” value was -0.078. With RRIRSRPPRLPRPRPRPMNKPRP the “shrunken log2 fold change” value was -0.6. In the case of RRIRSRPPRLPRPRPRPMNRPRP, the “shrunken log2 fold change” value is reported as -0.378. With RRIRSRPPRLPRPRPRPMPDPRP the “shrunken log2 fold change” value was 0.235. RRIRSRPPRLPRPRPRPMPKPRP was tested, and the “shrunken log2 fold change” value was 0.0763. For RRIRSRPPRLPRPRPRPMQLPRP, the “shrunken log2 fold change” value was 0.115. In the case of RRIRSRPPRLPRPRPRPMQRPRP, the “shrunken log2 fold change” value is reported as 0.281. RRIRSRPPRLPRPRPRPMQYPRP was tested, and the “shrunken log2 fold change” value was -0.289. RRIRSRPPRLPRPRPRPMRSPRP was tested, and the “shrunken log2 fold change” value was 0.0162. With RRIRSRPPRLPRPRPRPMSPPRP the “shrunken log2 fold change” value was -0.125. In the case of RRIRSRPPRLPRPRPRPMVCPRP, the “shrunken log2 fold change” value is reported as 0.188. With RRIRSRPPRLPRPRPRPMVEPRP the “shrunken log2 fold change” value was 0.884. RRIRSRPPRLPRPRPRPMWVPRP was tested, and the “shrunken log2 fold change” value was -0.0635. RRIRSRPPRLPRPRPRPMYMPRP was tested, and the “shrunken log2 fold change” value was -0.387. With RRIRSRPPRLPRPRPRPNACPRP the “shrunken log2 fold change” value was 0.0406. RRIRSRPPRLPRPRPRPNAEPRP was tested, and the “shrunken log2 fold change” value was 0.572. For RRIRSRPPRLPRPRPRPNETPRP, the “shrunken log2 fold change” value was -0.198. For RRIRSRPPRLPRPRPRPNFPPRP, the “shrunken log2 fold change” value was 0.0832. With RRIRSRPPRLPRPRPRPNHHPRP the “shrunken log2 fold change” value was -0.566. With RRIRSRPPRLPRPRPRPNHVPRP the “shrunken log2 fold change” value was -0.803. For RRIRSRPPRLPRPRPRPNIFPRP, the “shrunken log2 fold change” value was -0.138. With RRIRSRPPRLPRPRPRPNKDPRP the “shrunken log2 fold change” value was -0.651. For RRIRSRPPRLPRPRPRPNKEPRP, the “shrunken log2 fold change” value was 0.0328. With RRIRSRPPRLPRPRPRPNLEPRP the “shrunken log2 fold change” value was -0.144. With RRIRSRPPRLPRPRPRPNMEPRP the “shrunken log2 fold change” value was -0.154. For RRIRSRPPRLPRPRPRPNNIPRP, the “shrunken log2 fold change” value was -0.564. RRIRSRPPRLPRPRPRPNQEPRP was tested, and the “shrunken log2 fold change” value was 0.0169. RRIRSRPPRLPRPRPRPNRRPRP was tested, and the “shrunken log2 fold change” value was -0.0429. With RRIRSRPPRLPRPRPRPNTEPRP the “shrunken log2 fold change” value was 0.121. With RRIRSRPPRLPRPRPRPNWFPRP the “shrunken log2 fold change” value was -0.0702. RRIRSRPPRLPRPRPRPNYQPRP was tested, and the “shrunken log2 fold change” value was -0.199. With RRIRSRPPRLPRPRPRPPALPRP the “shrunken log2 fold change” value was 0.453. With RRIRSRPPRLPRPRPRPPAPPRP the “shrunken log2 fold change” value was 0.906. For RRIRSRPPRLPRPRPRPPATPRP, the “shrunken log2 fold change” value was 0.725. In the case of RRIRSRPPRLPRPRPRPPCDPRP, the “shrunken log2 fold change” value is reported as 0.0563. In the case of RRIRSRPPRLPRPRPRPPCRPRP, the “shrunken log2 fold change” value is reported as 0.426. For RRIRSRPPRLPRPRPRPPCTPRP, the “shrunken log2 fold change” value was -0.174. In the case of RRIRSRPPRLPRPRPRPPDIPRP, the “shrunken log2 fold change” value is reported as -0.283. RRIRSRPPRLPRPRPRPPDSPRP was tested, and the “shrunken log2 fold change” value was 0.322. In the case of RRIRSRPPRLPRPRPRPPHAPRP, the “shrunken log2 fold change” value is reported as 0.629. With RRIRSRPPRLPRPRPRPPHIPRP the “shrunken log2 fold change” value was -0.0943. RRIRSRPPRLPRPRPRPPIAPRP was tested, and the “shrunken log2 fold change” value was 2.36. For RRIRSRPPRLPRPRPRPPIPPRP, the “shrunken log2 fold change” value was 0.0379. RRIRSRPPRLPRPRPRPPKGPRP was tested, and the “shrunken log2 fold change” value was 0.144. RRIRSRPPRLPRPRPRPPKHPRP was tested, and the “shrunken log2 fold change” value was 0.2. RRIRSRPPRLPRPRPRPPKTPRP was tested, and the “shrunken log2 fold change” value was -0.0288. With RRIRSRPPRLPRPRPRPPLDPRP the “shrunken log2 fold change” value was 0.289. For RRIRSRPPRLPRPRPRPPLTPRP, the “shrunken log2 fold change” value was 0.367. In the case of RRIRSRPPRLPRPRPRPPMMPRP, the “shrunken log2 fold change” value is reported as 0.0697. With RRIRSRPPRLPRPRPRPPPFPRP the “shrunken log2 fold change” value was 0.449. With RRIRSRPPRLPRPRPRPPQIPRP the “shrunken log2 fold change” value was 0.138. For RRIRSRPPRLPRPRPRPPREPRP, the “shrunken log2 fold change” value was 0.622. RRIRSRPPRLPRPRPRPPRIPRP was tested, and the “shrunken log2 fold change” value was 0.132. In the case of RRIRSRPPRLPRPRPRPPRPPRP, the “shrunken log2 fold change” value is reported as 0.684. In the case of RRIRSRPPRLPRPRPRPPSMPRP, the “shrunken log2 fold change” value is reported as 0.13.
